A short description of test [1]: Binding of P-EGFs to TiO2 plate, anti-EGF antibody chemiluminescence detection. Conditions: about 2.0 ng, 10 μl in TBS pH 7.5; washed 3 times with TBS-T; anti-human EGF antibody and HRP secondary. The procedure: Subsequently, in accordance with a scheme in the left in FIG. 4-2, various P-EGF solutions (about 2.0 ng, 10 μl in TBS, pH 7.5) were added on a TiO2 plate (a plate produced by vapor deposition of titanium on the surface of a glass plate with a diameter of 15 mm and a thickness of 0.6 mm (manufactured by Matsunami Glass Ind., Ltd.) (the vapor deposition step was requested to Osaka Vacuum Industrial Co., Ltd.) was used); and a washing operation (TBS-T buffer, pH 7.5) was repeated 3 times. And, after blocking with 0.1% BSA solution, an anti-human EGF antibody was added as a primary antibody. Furthermore, after the washing operation (TBS-T buffer, pH 7.5) was repeated 3 times, an anti-mouse IgG antibody HRP conjugate was added as a secondary antibody. At the end, using a luminescent phenomenon by a reaction between a chemiluminescence reagent and HRP as an index, the presence of protein immobilized on the TiO2 plate was detected. […]
First, in accordance with a scheme in the left in FIG. 7-1, various P-EGF solutions (about 2.0 ng, 10 μl in TBS, pH 7.5) were added on a TiO2 plate and a washing operation (TBS-T buffer, pH 7.5) was repeated 3 times. […] At the end, using a luminescent phenomenon by a reaction between a chemiluminescence reagent and HRP as an index, the presence of protein immobilized on the TiO2 plate was detected.

For the next test, the system named is NRK-49F fibroblasts. Description: NRK-49F fibroblast proliferation on sTOP1-EGF immobilized TiO2 plate. In kind it is cell-based. To be noted: about 5.0 ng immobilized; ca. 5,000 cells seeded; 6 days; 1% FBS DMEM; vs TiO2 plate with EGF alone added. On the procedure:
First, in accordance with a scheme in the left in FIG. 7-2, sTOP1-EGF solution (about 5.0 ng, 12 μl in TBS, pH 7.5) was added onto the TiO2 plate and a washing operation (TBS-T buffer, pH 7.5) was then repeated 3 times. And, by blocking with 0.1% BSA solution, a “sTOP1-EGF immobilized TiO2 plate” was prepared. And then, ca. 5,000 NRK-49F fibroblasts were seeded on the sTOP1-EGF immobilized TiO2 plate, cultured for 6 days (1% FBS containing DMEM medium was used), and subjected to microscopy (cells were not stained).

B1: MQAYYNYYSNYYGRSYSSDGQLGQFEGNSDSECPLSHDGYCLHDGVCMYI EALDKYACNCVVGYIGERCQYRDLKWWELR (peptide)
chain: MQAYYNYYSNYYGRSYSSDGQLGQFEGNSDSECPLSHDGYCLHDGVCMYIEALDKYACNCVVGYIGERCQYRDLKWWELR
notes: chemically synthesized TOP1-EGF composed of 80 amino acids, made by peptide solid phase method
With B1, the “TiO2 plate binding (luminescent phenomenon of protein immobilized on the plate)” value in test [1] is given as “the luminescent phenomenon could be confirmed”. Also, the “Proliferation of NRK-49F fibroblasts on the immobilized TiO2 plate (microscopy)” value with NRK-49F fibroblasts was “markedly proliferated”.

The values above are taken from US8697655B2, “Method of selecting polypeptide sequence, and metal oxide or silicon-containing compound binding peptide and use thereof” (Riken, priority 2010, dated 2014).
